Experimental findings from publication PMC9860126, “Mechanistic insights into the nickel-dependent allosteric response of the Helicobacter pylori NikR transcription factor” are described below.

What all share (assay): fluorescence anisotropy; apo (no Ni); FA: 5 nM DNA, 20 mM Tris pH 7.6, 100 mM NaCl, 3 mM MgSO4, temperature not stated (Ni loading 1.2 eq NiSO4 per monomer at RT). EMSA: 20 mM Tris pH 7.5, 100 mM KCl, 3 mM MgCl2, 0.1% IGEPAL, 5% glycerol, 0.1 mg/ml herring sperm DNA, RT; gel with 800 uM NiSO4 at 4 C
Background: In fluorescence polarisation assays a small probe gives low polarisation when free and higher when bound to something large.

Data set [1] has as its target T1, HpNikR WT (Helicobacter pylori G27 (from vector …, UniProt A1YSQ9 1-148)).
T1 sequence: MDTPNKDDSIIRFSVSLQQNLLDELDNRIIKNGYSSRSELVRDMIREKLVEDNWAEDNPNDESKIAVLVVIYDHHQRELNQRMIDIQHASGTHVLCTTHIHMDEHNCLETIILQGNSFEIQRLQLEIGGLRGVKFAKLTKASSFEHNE
As to conditions: protein: recombinant; tags: none stated (untagged purification); chain copies: 4; label: fluorescein on internal thymine (T14 of strand 1); blunt.

Data set [2] deals with HpNikR K134A (Helicobacter pylori G27, UniProt A1YSQ9 1-148, K134A). The note with it: protein: recombinant; tags: none stated; chain copies: 4; label: fluorescein on internal thymine (T14 of strand 1); blunt.
Data set [3] deals with HpNikR I127A (Helicobacter pylori G27, UniProt A1YSQ9 1-148, I127A). As to conditions: protein: recombinant; tags: none stated; chain copies: 4; label: fluorescein on internal thymine (T14 of strand 1); blunt.
For data set [4], the target named is HpNikR E56A (Helicobacter pylori G27, UniProt A1YSQ9 1-148, E56A). The note with it: protein: recombinant; tags: none stated; chain copies: 4; label: fluorescein on internal thymine (T14 of strand 1); blunt.
Data set [5] concerns the target HpNikR T92A (Helicobacter pylori G27, UniProt A1YSQ9 1-148, T92A). As to conditions: protein: recombinant; tags: none stated; chain copies: 4; label: fluorescein on internal thymine (T14 of strand 1); blunt.
The target in data set [6] is HpNikR N32A (Helicobacter pylori G27, UniProt A1YSQ9 1-148, N32A). The note with it: protein: recombinant; tags: none stated; chain copies: 4; label: fluorescein on internal thymine (T14 of strand 1); blunt.
For data set [7], the target named is HpNikR E62A (Helicobacter pylori G27, UniProt A1YSQ9 1-148, E62A). The note with it: protein: recombinant; tags: none stated; chain copies: 4; label: fluorescein on internal thymine (T14 of strand 1); blunt.
Data set [8] has as its target HpNikR K31A (Helicobacter pylori G27, UniProt A1YSQ9 1-148, K31A). The note with it: protein: recombinant; tags: none stated; chain copies: 4; label: fluorescein on internal thymine (T14 of strand 1); blunt.
The target of data set [9] is HpNikR K48A (Helicobacter pylori G27, UniProt A1YSQ9 1-148, K48A). The note with it: protein: recombinant; tags: none stated; chain copies: 4; label: fluorescein on internal thymine (T14 of strand 1); blunt.
In data set [10] the target is HpNikR W54A (Helicobacter pylori G27, UniProt A1YSQ9 1-148, W54A). The note with it: protein: recombinant; tags: none stated; chain copies: 4; label: fluorescein on internal thymine (T14 of strand 1); blunt.

Residue numbers refer to the chain shown, from its start.

B1: ureA promoter 32 bp (FA) (dsDNA)
DNA 1: ATATAACACTAATTCATTTTAAATAATAATTA
DNA 2: TAATTATTATTTAAAATGAATTAGTGTTATAT
A word on the Kd: it is the concentration at which binding is half-saturated. B1: the Kd in data set [1] was 4.9 ± 1.7 µM; in data set [2], 1.7 ± 0.7 µM; in data set [3], 4 ± 1.3 µM; in data set [4], 1.8 ± 0.3 µM; in [5], 2.2 ± 0.2 µM; in data set [6], 1.6 ± 0.4 µM. In addition, the Kd in data set [7] came to 2.6 ± 0.2 µM; in data set [8] it was 2.3 ± 0.5 µM; in data set [10] it was 6.1 ± 1 µM. For the same molecule, the binding result in data set [9] is “no binding”.

B2: ureA-perf promoter 32 bp (dsDNA)
DNA 1: B1 DNA 1 with A6T, C7T, C9T
DNA 2: B1 DNA 2 with G24A, G26A, T27A
In the case of B2, the dissociation constant Kd turned out to be 4.1 ± 1.1 µM in [1]; 1 ± 0.3 µM in data set [2]; 4 ± 0.3 µM in data set [3]; 1.2 ± 0.1 µM in [4]; 2.5 ± 0.4 µM in data set [5]; 1.9 ± 0.7 µM in [6]. Besides, the equilibrium dissociation constant (Kd) in data set [7] worked out at 4.2 ± 0.7 µM; in [8], 1.3 ± 0.2 µM; in [10], 3.7 ± 0.2 µM. Further, in data set [9], the binding result is “no binding”.
